The values that follow come from patent US20150246959A1 (US Dept. of Health and Human Services, published 2015).

What all share (experiment): cell-based or functional assay
Assay [1] has as its target MAGE-A3 full-length protein processed and presented by HLA-DP4 on cells (human).
The target of assay [2] is MAGE-A3: 243-258 peptide presented by HLA-DP*0401 on 293-CIITA cells (human, UniProt P20036 29-260).
Assay [3] concerns the target MAGE-A4/A9: 249-259 peptide presented by HLA-DP*0401 on 293-CIITA cells (human, UniProt P20036 29-260).
For assay [4], the target named is MAGE-L2: 582-597 peptide presented by HLA-DP*0401 on 293-CIITA cells (human, UniProt P20036 29-260).
For assay [5], the target named is MAGE-A3: 248-258 peptide presented by HLA-DP*0401 on 293-CIITA cells (human, UniProt P20036 29-260).
In assay [6] the target is MAGE-A3: 245-258 peptide presented by HLA-DP*0401 on 293-CIITA cells (human, UniProt P20036 29-260).
For assay [7], the target named is MAGE-D2: 413-428 peptide presented by HLA-DP*0401 on 293-CIITA cells (human, UniProt P20036 29-260).
In assay [8] the target is MAGE-A3: 243-256 peptide presented by HLA-DP*0401 on 293-CIITA cells (human, UniProt P20036 29-260).
Assay [9] addresses Necdin: 237-247 peptide presented by HLA-DP*0401 on 293-CIITA cells (human, UniProt P20036 29-260).
The target of assay [10] is MAGE-A3: 246-258 peptide presented by HLA-DP*0401 on 293-CIITA cells (human, UniProt P20036 29-260).
In assay [11] the target is MAGE-A3: 247-258 peptide presented by HLA-DP*0401 on 293-CIITA cells (human, UniProt P20036 29-260).
Assay [12] has as its target MAGE-C1: 113-123 peptide presented by HLA-DP*0401 on 293-CIITA cells (human, UniProt P20036 29-260).
Assay [13] addresses MAGE-B16: 252-262 peptide presented by HLA-DP*0401 on 293-CIITA cells (human, UniProt P20036 29-260).
Assay [14] has as its target MAGE-A2/A12: 248-258 peptide presented by HLA-DP*0401 on 293-CIITA cells (human, UniProt P20036 29-260).
Assay [15] concerns the target MAGE-B2: 250-260 peptide presented by HLA-DP*0401 on 293-CIITA cells (human, UniProt P20036 29-260).
Assay [16] has as its target MAGE-A1/B4: 241-251 peptide presented by HLA-DP*0401 on 293-CIITA cells (human, UniProt P20036 29-260).
For assay [17], the target named is MAGE-A6: 248-258 peptide presented by HLA-DP*0401 on 293-CIITA cells (human, UniProt P20036 29-260).
The target in assay [18] is MAGE-B10: 250-260 peptide presented by HLA-DP*0401 on 293-CIITA cells (human, UniProt P20036 29-260).
Assay [19] deals with MAGE-G1: 220-235 peptide presented by HLA-DP*0401 on 293-CIITA cells (human, UniProt P20036 29-260).
For assay [20], the target named is MAGE-A3: 243-255 peptide presented by HLA-DP*0401 on 293-CIITA cells (human, UniProt P20036 29-260).
Assay [21] concerns the target MAGE-D4: 300-315 peptide presented by HLA-DP*0401 on 293-CIITA cells (human, UniProt P20036 29-260).
Assay [22] deals with MAGE-A8: 251-261 peptide presented by HLA-DP*0401 on 293-CIITA cells (human, UniProt P20036 29-260).
In assay [23] the target is MAGE-A3: 243-253 peptide presented by HLA-DP*0401 on 293-CIITA cells (human, UniProt P20036 29-260).
In assay [24] the target is MAGE-A3: 249-258 peptide presented by HLA-DP*0401 on 293-CIITA cells (human, UniProt P20036 29-260).
Assay [25] addresses MAGE-A3: 243-254 peptide presented by HLA-DP*0401 on 293-CIITA cells (human, UniProt P20036 29-260).

Chain of MAGE-A3 full-length protein processed and presented by HLA-DP4 on cells (human) (P20036 29-260, chain 1 of 2): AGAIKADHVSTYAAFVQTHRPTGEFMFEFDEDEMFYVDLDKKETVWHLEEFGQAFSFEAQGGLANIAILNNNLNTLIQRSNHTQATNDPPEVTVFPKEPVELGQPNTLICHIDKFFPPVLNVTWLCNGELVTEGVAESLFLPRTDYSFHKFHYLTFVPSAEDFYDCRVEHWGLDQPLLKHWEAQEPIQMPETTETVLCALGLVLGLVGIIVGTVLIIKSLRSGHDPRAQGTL
Chain of MAGE-A3 full-length protein processed and presented by HLA-DP4 on cells (human) (P43357 whole entry, chain 2 of 2, further chain): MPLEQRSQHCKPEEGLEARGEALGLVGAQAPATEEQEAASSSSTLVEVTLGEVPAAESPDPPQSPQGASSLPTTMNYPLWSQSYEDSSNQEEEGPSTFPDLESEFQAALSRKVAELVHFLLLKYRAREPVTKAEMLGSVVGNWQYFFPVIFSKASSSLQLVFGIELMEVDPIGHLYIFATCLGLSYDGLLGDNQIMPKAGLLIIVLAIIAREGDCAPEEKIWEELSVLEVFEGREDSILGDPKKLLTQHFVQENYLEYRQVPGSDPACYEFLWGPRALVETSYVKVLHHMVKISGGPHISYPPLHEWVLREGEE

B1: a1 substituted 6F9 TCR (alpha chain S116A) (TCR, V domains shown)
V domain 1: QTVTQSQPEMSVQEAETVTLSCTYDTSESDYYLFWYKQPPSRQMILVIRQEAYKQQNATENRFSVNFQKAAKSFSLKISDSQLGDAAMYFCALRASGTYKYIFGTGTRLKVLA
V domain 2: GAGVSQSPSNKVTEKGKDVELRCDPISGHTALYWYRQSLGQGLEFLIYFQGNSAPDKSGLPSDRFSAERTGGSVSTLTIQRTQQEDSAVYLCASIRTGPFFSGNTIYFGEGSWLTVVE
For the molecule B1, the “fold increase in anti-tumor activity (IFN-gamma) against wt 6F9 TCR, CD4+ enriched PBL” value in assay [1] is approximately 2 fold.

B2: a2 substituted 6F9 TCR (alpha chain S117A) (TCR, V domains shown)
V domain 1: QTVTQSQPEMSVQEAETVTLSCTYDTSESDYYLFWYKQPPSRQMILVIRQEAYKQQNATENRFSVNFQKAAKSFSLKISDSQLGDAAMYFCALRSAGTYKYIFGTGTRLKVLA
V domain 2: GAGVSQSPSNKVTEKGKDVELRCDPISGHTALYWYRQSLGQGLEFLIYFQGNSAPDKSGLPSDRFSAERTGGSVSTLTIQRTQQEDSAVYLCASIRTGPFFSGNTIYFGEGSWLTVVE
Turning to B2, in [1], the “fold increase in anti-tumor activity (IFN-gamma) against wt 6F9 TCR, CD4+ enriched PBL” value was approximately 2 fold.

B3: 6F9 TCR (TCR)
TCR alpha: QTVTQSQPEMSVQEAETVTLSCTYDTSESDYYLFWYKQPPSRQMILVIRQEAYKQQNATENRFSVNFQKAAKSFSLKISDSQLGDAAMYFCALRSSGTYKYIFGTGTRLKVLANIQNPDPAVYQLRDSKSSDKSVCLFTDFDSQTNVSQSKDSDVYITDKTVLDMRSMDFKSNSAVAWSNKSDFACANAFNNSIIPEDTFFPSPESSCDVKLVEKSFETDTNLNFQNLSVIGFRILLLKVAGFNLLMTLRLWSS
TCR beta: GAGVSQSPSNKVTEKGKDVELRCDPISGHTALYWYRQSLGQGLEFLIYFQGNSAPDKSGLPSDRFSAERTGGSVSTLTIQRTQQEDSAVYLCASIRTGPFFSGNTIYFGEGSWLTVVEDLNKVFPPEVAVFEPSEAEISHTQKATLVCLATGFFPDHVELSWWVNGKEVHSGVSTDPQPLKEQPALNDSRYCLSSRLRVSATFWQNPRNHFRCQVQFYGLSENDEWTQDRAKPVTQIVSAEAWGRADCGFTSVSYQQGVLSATILYEILLGKATLYAVLVSALVLMAMVKRKDF
Regarding B3, the “IFN-g (pg/ml); CD4+ T cells of PBMC-1; 293-CIITA pulsed with peptide” value in [2] was 10200 pg/mL; in assay [3], 0 pg/mL; in [4], 45 pg/mL; in assay [5] it was 6220 pg/mL; in assay [6], 9290 pg/mL; in assay [7] it was 82 pg/mL. Further, the “IFN-g (pg/ml); CD4+ T cells of PBMC-1; 293-CIITA pulsed with peptide” value was 1020 pg/mL in [8]; 0 pg/mL in assay [9]; 7140 pg/mL in assay [10]; 6710 pg/mL in [11]; 9 pg/mL in [12]; 0 pg/mL in [13]. In addition, the “IFN-g (pg/ml); CD4+ T cells of PBMC-1; 293-CIITA pulsed with peptide” value in assay [14] worked out at 33 pg/mL; in assay [15] it was 0 pg/mL; in [16], 129 pg/mL; in assay [17], 6440 pg/mL; in assay [18], 22 pg/mL; in assay [19] it was 0 pg/mL. The “IFN-g (pg/ml); CD4+ T cells of PBMC-1; 293-CIITA pulsed with peptide” value in assay [20] turned out to be 76 pg/mL; in [21], 193 pg/mL; in [22], 43 pg/mL; in assay [23], 0 pg/mL; in [24], 669 pg/mL; in assay [25], 28 pg/mL. Also, the “IFN-g (pg/ml); CD4+ T cells of PBMC-2; 293-CIITA pulsed with peptide” value in assay [2] came out at 10400 pg/mL; in assay [3] it was 22 pg/mL; in [4] it was 78 pg/mL; in [5], 7400 pg/mL; in assay [6] it was 8920 pg/mL; in [7], 226 pg/mL. Moreover, the “IFN-g (pg/ml); CD4+ T cells of PBMC-2; 293-CIITA pulsed with peptide” value in assay [8] came to 1670 pg/mL; in assay [9], 21 pg/mL; in assay [10] it was 9200 pg/mL; in [11], 6810 pg/mL; in assay [12], 25 pg/mL; in assay [13], 11 pg/mL. For the same molecule, the “IFN-g (pg/ml); CD4+ T cells of PBMC-2; 293-CIITA pulsed with peptide” value in assay [14] is 37 pg/mL; in assay [15], 7 pg/mL; in assay [16], 108 pg/mL; in assay [17], 13200 pg/mL; in assay [18] it was 28 pg/mL; in assay [19], 25 pg/mL. The “IFN-g (pg/ml); CD4+ T cells of PBMC-2; 293-CIITA pulsed with peptide” value in assay [20] is 111 pg/mL; in assay [21], 194 pg/mL; in assay [22] it was 39 pg/mL; in assay [23], 30 pg/mL; in assay [24], 922 pg/mL; in assay [25] it was 30 pg/mL.
